Results reported in publication PMC7602980 (Biomolecules, 2020).
Values belong to the binder of their own block, whether it stands above or below them.

Target: T1, calmodulin (UniProt P0DP23 1-149)
T1 construct: calmodulin (CaM); Used 15N-labeled or unlabeled; also called CaM; source: expressed (cloned in pAED4 vector)
Assay: NMR titration; 15N-HSQC; 15N-labeled CaM at a constant concentration (30–100 μM), unlabeled ligand added (7.5 to 400 μM); KD by nonlinear fitting of chemical shift changes, average of at least six curves
Details: both partners purified

binding result: binds
B1: Cx43CL_(136-158) M147T peptide (peptide)
peptide: KYGIEEHGKVKTRGGLLRTYIIS
notes: connexin43 (Cx43) cytoplasmic loop, residues K136-S158, with the ODDD mutation M147T; ODDD-linked mutation that occurs in patients; No species is named for the synthetic peptides; source: synthetic peptide (LifeTein, 95% purity)

binding result: binds
B2: Cx43CL_(136-158) R148Q peptide (peptide)
peptide: KYGIEEHGKVKMQGGLLRTYIIS
notes: connexin43 (Cx43) cytoplasmic loop, residues K136-S158, with the ODDD mutation R148Q; ODDD-linked mutation that occurs in patients; No species is named for the synthetic peptides; source: synthetic peptide (LifeTein, 95% purity)

binding result: binds
B3: Cx43CL_(136-158) T154A peptide (peptide)
peptide: KYGIEEHGKVKMRGGLLRAYIIS
notes: connexin43 (Cx43) cytoplasmic loop, residues K136-S158, with the ODDD mutation T154A; ODDD-linked mutation that occurs in patients; No species is named for the synthetic peptides; source: synthetic peptide (LifeTein, 95% purity)
